The labels stand for the following.
T1: cynomolgus monkey Siglec-15 on CHO-K1/cynomolgus monkey Siglec-15 cells (cynomolgus monkey, UniProt Q6ZMC9 20-328 (human entry))
T1 chain: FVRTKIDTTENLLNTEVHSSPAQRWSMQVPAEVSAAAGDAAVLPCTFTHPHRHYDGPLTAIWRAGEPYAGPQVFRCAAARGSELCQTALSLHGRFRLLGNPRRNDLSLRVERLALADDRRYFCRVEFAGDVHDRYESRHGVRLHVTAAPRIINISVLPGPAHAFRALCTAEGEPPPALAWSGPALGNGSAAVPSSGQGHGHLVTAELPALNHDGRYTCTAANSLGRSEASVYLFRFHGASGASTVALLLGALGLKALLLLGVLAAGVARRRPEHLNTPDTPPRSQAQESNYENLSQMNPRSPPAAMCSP

T2: human Siglec-15 ECD-his protein (Acrobiosystems, Cat #: SG5-H52H3) (human, UniProt Q6ZMC9 20-263)
T2 construct: Bought protein; only its extracellular domain stood in the assay; also called human Siglec-15 protein; recombinant human Siglec-15 protein; not shown: his tag
T2 sequence: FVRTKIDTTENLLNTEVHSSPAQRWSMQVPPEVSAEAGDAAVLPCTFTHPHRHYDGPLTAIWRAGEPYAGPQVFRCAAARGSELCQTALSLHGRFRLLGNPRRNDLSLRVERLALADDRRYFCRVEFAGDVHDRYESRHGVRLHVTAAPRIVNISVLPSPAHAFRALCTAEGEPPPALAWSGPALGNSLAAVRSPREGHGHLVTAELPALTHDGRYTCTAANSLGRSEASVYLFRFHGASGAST

B1: PR300066 (Tab) (antibody, human IgG1, kappa, V domains shown)
VH: QVQLQQPGAELVKPGASVKMSCKASGYTFTSYWITWVIQRPGQGLEWIGDIYCGSDTMHYNEKFKNKATLTVDTSSSTAYMQLSSLTSEDSAVYYCARWWDYGSSYDYFDYWGQGTTLTVSS
VL: DIKMTQSPSSMYASLGERVTITCKASQDINSYLSWFQQKPGKSPKTLIYRANRLVDGVPSRFSGSGSGQDYSLTISSLEYEDMGIYYCLQYDEFPYTFGGGTKLEIKR
notes: variable region from clone 5G12 of WO 2018/057735A1, on human IgG1/kappa constant regions; also called 5G12
B2: PR301286 (antibody, human IgG1, kappa, V domains shown)
VH: QVQLVESGGGVVQPGKSLRLSCAASGFTFSSYGMHWVRQAPGKGLEWVAVIWIDGSNRYYAASVKGRFTISRDNSKNTLYLQMNSLRAEDTAVYYCTRGYGDYAYVMDVWGQGASVTVSS
VL: DIVMTQSPLSLPVTPGEPASISCRSSQSLLPGNGYNYLDWYLQKPGQSPQLLIYLGSNRASGVPDRFSGSGSGTDFTLKISRVEAEDVGIYYCMQALQSPLTFGGGTKVEIKR
notes: Parent of the PTM variants PR301286-1, -3, -5, -6, -7
B3: PR301289 (antibody, human IgG1, kappa, V domains shown)
VH: QVQLVQSGAEVKKPGASVKVSCRASGYTFTSYDINWVRQATGQGLEWMGWMNPHSGDTGYAQNFQGRVTMTWNTSISTAYMELSSLRSEDTAVYYCARRRVGVYYYGMDVWGQGTTVTVSS
VL: ENVLTQSPGTLSLSPGERATLSCRASQSVSSSYFGWYQQKPGQAPRLLIYGASSRATGIPDRFSGSGSGTDFTLTISRLEPEDFAVYYCQQYGSSPITFGQGTRLEIKR
notes: Parent of the PTM variants PR301289-1 and -2
B4: PR301285 (antibody, human IgG1, kappa, V domains shown)
VH: QVQLQESGPGLVKPSETLSLTCTVSGGSMISYYWSWLRQPPGKGLEWIGYIYYSGNTNYNPSLKSRITIAVDTSKNQFSLKLNSVTAADTAVYYCARERELHPYYFDYWGQGTLVTVSS
VL: DIQLTQSPSFLSASVGDRVTITCRASQGIDNYLAWYQQKPGKAPKVLIYAASTLQSGVPSRFSGSGSGTEFTLTISSLQPEDFATYYCQQLNSYPLTFGGGTKVEIKR

“And” between values parts separate entries of the source, which are not always exact repeats. Equal entries are not always repeated.

From patent US20260070974A1 (NONA BIOSCIENCES SUZHOU, published 2026) come the findings set out here.

The target of the first experiment is T3, mouse Siglec-15-his protein (Acrobiosystems, Cat #: SG5-M52H7) (mouse).
T3 construct: Bought protein; also called mouse Siglec-15 protein
The experiment in a line: ELISA, coated mouse Siglec-15-his. As to the method: (§1) […] mouse Siglec-15-his protein (Acrobiosystems, Cat #: SG5-M52H7) dissolved in PBS was added to an ELISA plate at 100 μL/well for coating and the plate was incubated overnight at 4° C. The ELISA plate was then blocked with PBST (PBS+0.05% Tween 20) containing 2% BSA at 200 μL/well and incubated at 37° C. for 1 h. The ELISA plate was washed 4 times with PBST. The anti-Siglec-15 antibody diluted in a gradient (5-fold dilution, starting concentration: 6.67 nM) was added to the ELISA plate at 100 μL/well and the plate was incubated at 37° C. for 1 h. The ELISA plate was washed 4 times with PBST. The goat anti-human IgG (H+L)-HRP (1:5000, Jackson, Cat: 109-035-088) was added at 100 μL/well and the plate was incubated at 37° C. for 1 h. The ELISA plate was washed 4 times with PBST. The TMB substrate (Biopanda, Cat: TMB-S-003) was added at 100 μL/well, and the plate was incubated at room temperature for 5 min, and then the stop buffer (Solarbio, Cat #: C1058) was added at 100 μL/well to stop the reaction.
(ELISA stands for enzyme-linked immunosorbent assay.)
With B1, the EC50 (commonly the concentration at which the effect is half-maximal) is 0.019 nM and 0.023 nM.

In turn, B2 showed an EC50 of 0.051 nM.

B3: the EC50 was 0.036 nM.

In the next experiment the target is T1, cynomolgus monkey Siglec-15 on …. The experiment in a line: flow cytometry on CHO-K1/cynomolgus monkey Siglec-15 cells. Here is the method:
cDNAs encoding cynomolgus monkey Siglec-15 (the amino acid sequence of which is set forth in SEQ ID NO: 155) were obtained by gene synthesis and cloned into the expression vector pcDNA3.1, and then the expression vector was transfected into CHO-K1 cells to construct CHO-K1/cynomolgus monkey Siglec-15 cells expressing cynomolgus monkey Siglec-15. CHO-K1/cynomolgus monkey Siglec-15 cells were adjusted to a density of 1×10⁶/mL with PBS, and the cell suspension was added to a 96-well V-bottom plate at 100 µL/well. The 96-well V-bottom plate was centrifuged at 1000 rpm for 5 min and washed once with PBS+2% FBS. The cells were resuspended in 100 μL of antibody diluted in a gradient (5-fold dilution, starting concentration: 500 nM) and incubated at 4° C. for 1 h, and PR300066 and hIgG1 were used as positive control and negative control, respectively. After 1 h, the cells were washed twice with PBS+2% FBS. The cells were incubated with 100 μL of Alexa Fluor 488 goat anti-human IgG (Jackson, Cat #: 109-545-098) at 4° C. for 1 h in the dark and then washed twice with PBS+2% FBS. The cells were then resuspended in 200 μL of PBS+2% FBS. The fluorescence intensity of the cells was analyzed using a BD FACS Canto™ II flow cytometer.
On to B4, for which the EC50 worked out at 0.889 nM and the “Maximum (MFI)” value came out at 5660 MFI.

B1: the EC50 was 1.5 nM and 2.19 nM.

On to B2, for which the EC50 amounted to 3.39 nM and the “Maximum (MFI)” value came to 5860 MFI.

Turning to B3, the EC50 came out at 1.36 nM and the “Maximum (MFI)” value was 5420 MFI.

For the next experiment, the target named is T2, human Siglec-15 ECD-his protein …. The experiment in a line: ELISA, coated human Siglec-15 ECD-his. Here is the method:
as §1, with “human Siglec-15 ECD-his” for “mouse Siglec-15-his”, “SG5-H52H3)” for “SG5-M52H7)”, “Cat #:” for “Cat:”
Regarding B4, the EC50 stood at 0.031 nM.

Consider B1, for which the EC50 was 0.022 nM and 0.021 nM and 0.012 nM.

On to B2, for which the EC50 was 0.027 nM and 0.018 nM and 0.022 nM.

As for B3, the EC50 is 0.027 nM and 0.058 nM.
